The target in one assay is T1, ET140-p26 (human, cysteine pairing not given here).
T1 construct: also called peptide 26
T1 peptide: Biotin-SGSGRCSSNTPPLTCQRYC
Kind of assay: peptide ELISA, biotin peptide on streptavidin plate, antibody 1 ug/mL. As to the method: (§1) The peptides were coated onto Streptavidin plates at 2 ug/mL in PBST (PBS+0.05% Tween-20). After washing and blocking with 3% BSA. After washing, 1 ug/mL ET140-3, ET140-24, ET140-54 or ET901 mIgG1 was added to the wells, respectively. “mIgG1” used in all Examples represents that the variable region is fully human and the Fc part is mouse IgG1. Then HRP anti-mouse IgG detection antibody was added to each well. Finally, the color was developed using TMB substrate. A450 was recorded for data analysis.

A further assay deals with T2, ET140-p25 (human, cysteine pairing not given here).
T2 construct: also called peptide 25
T2 peptide: Biotin-SGSGLRCSSNTPPLTCQRY
The assay is described as above. On the procedure: as §1

Ends that are not written are not given here. * marks the point of attachment. Biotin = O=C1N[C@H]2[C@H](CS[C@H]2CCCCC(=O)*)N1

B1: ET140-153 mIgG1 (antibody, V domains shown)
VH: QVQLVQSGAEVKKPGSSVKVSCKASGGTFSSYAISWVRQAPGQGLEWMGRIIPILGIANYAQKFQGRVTITADKSTSTAYMELSSLRSEDTAVYYCARGGYYSHDMWSEDWGQGTLVTVSS
VL: LPVLTQPPSASGTPGQRVTISCSGRSSNIGSNSVNWYRQLPGAAPKLLIYSNNQRPPGVPVRFSGSKSGTSASLAISGLQSEDEATYYCATWDDNLNVHYVFGTGTKVTVLG
notes: also called ET140-3 mIgG1; ET140-3
As to B1, the results for the A450 in the assay with ET140-p26 and with ET140-p25 were 0.225 and 0.583, respectively.

(Values after US20200123266A1 (Memorial Sloan Kettering, published 2020).)
